Test results: the domain aggregation screens of Martell et al. (2025)

Assay: soluble fraction after stress (log2 fold change); higher = more stays soluble; pooled small domains, quantitative proteomics
Settings: stress: 50 degC
Procedure, shortened: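 Pooled custom libraries of small protein domains were each held under stress at 50°C. The read-out, high-throughput quantitative proteomics, tracked how much of each protein stayed soluble. This is reported as a base-two log fold change used to indicate aggregation propensity. Higher values mean more protein remains in solution.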
With “HMTGEEVLIMLGEKMKLIRNYNGYSQRQIAEILKIERSTYASYETGRNRPDIFAVQRFAKIFNVSVDYIL” the “soluble fraction (log2)” value was -0.118.
For “HMGLQDLFLNSLRKSKTPVTMFLVKGVKLQGVVTWFDNFSVLLRRDGMSQLVYKHSISTIMP”, the “soluble fraction (log2)” value was -0.0722.
For “HMLSVRERMSAILVSLEGERYADFTGLFDPTEGKGGVTVTFLAILELLKESMIDVVQNELYGPIHVRAA”, the “soluble fraction (log2)” value was -0.368.
In the case of “HMSMRIDTNTLNYYVQNAQISLSVLRTKINNLDQFLSGEKQPTFNQLSEIAKKINVPTGLLLLNKS”, the “soluble fraction (log2)” value is reported as -1.45.
For “HMHVLAVDEALHKLTELNELHAKIVEMRFFSGMTVQEVADELGVSKRKIESEWTMIKAWLRKELN”, the “soluble fraction (log2)” value was -0.665.
In the case of “HMESILDDFPGLGAVRRAALLEHFGDIDRLRAASAVEITEVDGFGDVLARELHDFLHRPKPDA”, the “soluble fraction (log2)” value is reported as -0.455.
For “HMQSAKLSYSDFMQKVNAGDVVSVKIQGPKISGVTTGGGKFMTYAPEDPTLVSTLMQKKVEVMAEP”, the “soluble fraction (log2)” value was 0.178.
With “HMVVVLPGETIKIDLIREGKDKQALGYLEDGTMIVVDNAKHLIGKNVEIEIDNVLPKEAGRVIFASLHGA” the “soluble fraction (log2)” value was -0.109.
With “HMYIKYETVLQNITERIAALRKNGTLVLDGERTLAAEFDASRGTIRKAMRQLEENGTILREGYVTRILPE” the “soluble fraction (log2)” value was -1.61.
For “HMTPTFSNQDLIKAGLAGSPVAKRRRERLGELLGIGYGNAKQLLKRLDLFAIDRPTFERAVAQLDQEGK”, the “soluble fraction (log2)” value was -0.161.
In the case of “HMDNVLGKSGKVIFVNEEINSYGRAFIPGHGEWNIRTKSDQNIHINDGIKVIERDGITLVVEL”, the “soluble fraction (log2)” value is reported as -1.14.
For “HMEDKIEESLEDNISELFAKTKDKYTLINDLYSKGYTVEELSRFSGLPSGEVRLVISLNSKN”, the “soluble fraction (log2)” value was 0.0392.
For “HMNFDLDSFKQRMTLDGLYFGNEKQDVIALNNLSERYQLTWFDVYQLAKETSSNHKILPKRILVKLQQ”, the “soluble fraction (log2)” value was -1.07.
In the case of “HMLTDAAAVKRSVRNLVQYGFYEKPFHPEIGSGVRDLLFENMTPFVANNLSKQIEEIITNYEPRA”, the “soluble fraction (log2)” value is reported as -0.396.
With “HMIVIMKAKAEEEDVNRVIDTIQSLGLRTQLNLGAERMVVAVIGDISKIGEDNFFRIRAMKGVENTVFVSK” the “soluble fraction (log2)” value was -0.396.
For “HMTYFDIAPELLTVYKEINDIPRDINQIVRKTGLSINEVSYKTMILQLEDKIVELPGQRFIRNS”, the “soluble fraction (log2)” value was -1.99.
For “HMSGLEDIKKKILEDAGIKKGSVKFVKVDKDYDDGIWKYEIDFVYDGKEYEYEIEVETGKILSRKTEKSD”, the “soluble fraction (log2)” value was -0.317.
For “HMLYETLKKGDQGTSVKTLQEKLKALGYLTGAADGKYGAGTETAVKSFQKAAGLTETGTADPETLSAVYAA”, the “soluble fraction (log2)” value was 0.17.
With “HMQQKNWIVRDGDGKIYGPFTTEQVLVQIDRGYFVGGEEVALYPGGRWIAISGAPEFYDRLLDALAMEG” the “soluble fraction (log2)” value was -0.402.
With “HMNETVTNQTVLDLLKEGFTSEEIIGAIENSSTRTITYDINFMRQLKAAGADVTLTTYLQKIAKKDM” the “soluble fraction (log2)” value was -0.13.
In the case of “HMSSEPASLVGKTGVAASVLRPSGRVEVNGEYYDAVSINGFIEKGESVFVHKYENAQLYVSKNSE”, the “soluble fraction (log2)” value is reported as 0.0445.
In the case of “HMKLRYRTQEELLGVAREYRRRGLPLSVIVIDFYHWTKFGDWKFDPAYWPDPVGMVRELRDMGVEAAV”, the “soluble fraction (log2)” value is reported as -0.203.
With “HMSSPVGIAQATTYVYVRAGHSMQAAKVGVLSPGEKVGVTGRSAQGFSEVVYNGVHRWVGSRYLSPT” the “soluble fraction (log2)” value was -1.4.
For “HMNMAVELEDGTQIFVFSEDGEFAGKRAVIADEEGRPTEENAPAGTHTLRDGRSIVVGEGGVIESVVET”, the “soluble fraction (log2)” value was 0.0438.
For “HMDSRVRHAVLTTLLGKRIVDDLVEKGELPGTPLVLATAPGLDRDLEQLIAQRVVTALLTTV”, the “soluble fraction (log2)” value was -0.082.
In the case of “HMEKIELKTVIPENLKKKRLDFALSELFPEHSRSRIQSWIKEGSVMVNSKNYRQRDLVDAGDVVEINTEQK”, the “soluble fraction (log2)” value is reported as 0.236.
For “HMVITATYTDFMDALEADEVKQVQFSSTEINYTIEKGGHVQYFKTGVVDNPQLPQILREKGVTYAAEIP”, the “soluble fraction (log2)” value was -0.0375.
With “HMGPSLDAVREQIRDLIAEEDKSAPYSDLSLVAELEKRGIHISRRTIAKYRGEMGIPNSDQRRYF” the “soluble fraction (log2)” value was 0.0495.
For “HMSGIQNNFITRLKKVLAPTIGIAEEISDLLNISIDSAYRRIRGETDFTFEEIYIITRKHKISIDEIYG”, the “soluble fraction (log2)” value was -3.58.
For “HMPVVKIPFILTEGPSSITKVIEIDADEILELKDVFQEDDKLWSINQIEMNDGRYVKHSDASLIVRASALR”, the “soluble fraction (log2)” value was 0.066.
